Measurements reported in PMC9039736, “Identifying novel SMYD3 interactors on the trail of cancer hallmarks” (Computational and Structural Biotechnology Journal, 2022).

B1: HIS-SMYD3-C-term(236–428) (domain or fragment, human, UniProt Q9H7B4 236-428, looked up)
chain: TICYLDMLMTSEERRKQLRDQYCFECDCFRCQTQDKDADMLTGDEQVWKEVQESLKKIEELKAHWKWEQVLAMCQAIISSNSERLPDINIYQLKVLDCAMDACINLGLLEEALFYGTRTMEPYRIFFPGSHPVRGVQVMKVGKLQLHQGMFPQAMKNLRLAFDIMRVTHGREHSLIEDLILLLEECDANIRAS
notes: SMYD3, human, residues 236-428, comprises the CT domain; source: recombinant human protein
B2: HIS-SMYD3-FL (natural protein, human, UniProt Q9H7B4 1-428, looked up)
chain: MEPLKVEKFATAKRGNGLRAVTPLRPGELLFRSDPLAYTVCKGSRGVVCDRCLLGKEKLMRCSQCRVAKYCSAKCQKKAWPDHKRECKCLKSCKPRYPPDSVRLLGRVVFKLMDGAPSESEKLYSFYDLESNINKLTEDKKEGLRQLVMTFQHFMREEIQDASQLPPAFDLFEAFAKVICNSFTICNAEMQEVGVGLYPSISLLNHSCDPNCSIVFNGPHLLLRAVRDIEVGEELTICYLDMLMTSEERRKQLRDQYCFECDCFRCQTQDKDADMLTGDEQVWKEVQESLKKIEELKAHWKWEQVLAMCQAIISSNSERLPDINIYQLKVLDCAMDACINLGLLEEALFYGTRTMEPYRIFFPGSHPVRGVQVMKVGKLQLHQGMFPQAMKNLRLAFDIMRVTHGREHSLIEDLILLLEECDANIRAS
notes: SMYD3, human, full length (constructs count to residue 428); also called HIS-SMYD3-FL (full length); source: recombinant human protein
B3: HIS-SMYD3-N-term(1–235) (domain or fragment, human, UniProt Q9H7B4 1-235, looked up)
chain: MEPLKVEKFATAKRGNGLRAVTPLRPGELLFRSDPLAYTVCKGSRGVVCDRCLLGKEKLMRCSQCRVAKYCSAKCQKKAWPDHKRECKCLKSCKPRYPPDSVRLLGRVVFKLMDGAPSESEKLYSFYDLESNINKLTEDKKEGLRQLVMTFQHFMREEIQDASQLPPAFDLFEAFAKVICNSFTICNAEMQEVGVGLYPSISLLNHSCDPNCSIVFNGPHLLLRAVRDIEVGEEL
notes: SMYD3, human, residues 1-235, comprises the SET domain; source: recombinant human protein

Target: T1, GST-BRCA2(1338–1781) (human, UniProt P51587 1338-1781)
T1 construct: one of nine GST fusion proteins spanning the entire coding region of BRCA2; source: recombinant GST fusion protein
T1 sequence (P51587 1338-1781): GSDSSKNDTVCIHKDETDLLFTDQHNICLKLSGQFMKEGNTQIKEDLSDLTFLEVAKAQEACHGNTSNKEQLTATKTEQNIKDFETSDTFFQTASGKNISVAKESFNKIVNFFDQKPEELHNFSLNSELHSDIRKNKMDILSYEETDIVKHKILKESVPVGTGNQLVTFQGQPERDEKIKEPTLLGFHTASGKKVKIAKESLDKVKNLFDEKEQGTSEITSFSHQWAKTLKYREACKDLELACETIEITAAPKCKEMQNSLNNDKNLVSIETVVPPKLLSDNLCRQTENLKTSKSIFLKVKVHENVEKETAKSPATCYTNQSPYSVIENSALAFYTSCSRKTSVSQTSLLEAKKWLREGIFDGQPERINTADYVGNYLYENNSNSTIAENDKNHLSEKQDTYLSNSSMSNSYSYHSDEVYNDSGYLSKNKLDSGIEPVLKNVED
Assay: pull-down; 200 ng HIS-SMYD3 construct with 500 ng GST-BRCA2(1338-1781), 1 h at 4 °C; precipitated by Dynabeads HIS-Tag Isolation and Pulldown; washed in buffer A (20 mM Tris-HCl pH 8, 150 mM KCl, 5 mM MgCl2, 0.2 mM EDTA, 10% glycerol, 0.1% NP-40, 1 mM DTT); immunoblot anti-GST and anti-HIS
Conditions: both partners purified

Binding result, binds:
B1
B2
B3
